Patent US20240024426A1, “HYPOTENSIVE PHARMACEUTICAL COMPOSITION COMPRISING TRIPLE ACTIVATOR HAVING ACTIVITY FOR ALL OF GLUCAGON, GLP-1, AND GIP RECEPTORS” (HANMI PHARM. CO., LTD., priority 2020, published 2024)
Bridges are numbered along the chain shown (N, C = ends). Where no end group is shown, it is not given here. [ ]: non-standard residue; d: D form. The star is where a group is joined. Acetyl(2-(4-imidazolyl)) = O=C(Cc1c[nH]cn1)*; Aib = CC(C)(N)C(=O)O

T1: human GIP receptor (human, UniProt P48546 22-466)
T1 sequence (looked up): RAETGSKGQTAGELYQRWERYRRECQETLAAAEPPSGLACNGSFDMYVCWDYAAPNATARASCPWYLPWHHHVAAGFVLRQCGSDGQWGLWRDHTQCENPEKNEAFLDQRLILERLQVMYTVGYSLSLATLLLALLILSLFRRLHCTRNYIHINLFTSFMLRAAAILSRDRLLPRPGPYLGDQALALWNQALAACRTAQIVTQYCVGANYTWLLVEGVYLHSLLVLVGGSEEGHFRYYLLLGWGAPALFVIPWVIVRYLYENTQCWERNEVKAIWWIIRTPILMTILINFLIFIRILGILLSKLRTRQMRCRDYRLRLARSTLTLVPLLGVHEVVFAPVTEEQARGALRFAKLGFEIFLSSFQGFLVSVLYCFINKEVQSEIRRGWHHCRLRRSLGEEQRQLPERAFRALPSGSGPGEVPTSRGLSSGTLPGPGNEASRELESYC


target: T1, human GIP receptor; experiment: cell-based or functional assay

Binder | In vitro activity compared with native peptide (%) vs. GIP [%]
H[Aib]QGTFTSDYSIAMDEIHQKDFVNWLLAQC (bridge 16-20) [Triple agonist of SEQ ID NO: 55] | 2.4
H[Aib]QGTFTSDVSSYLLGQQQKEFIAWLVKGGGPSSGAPPPSC [Triple agonist of SEQ ID NO: 5] | < 0.1
H[Aib]EGTFTSDYSIAMDEIHQKDFVDWLLAEC (bridge 16-20) [Triple agonist of SEQ ID NO: 54] | 0.1
H[Aib]QGTFTSDYSKYLDEKRQKEFVQWLLDTC (bridge 16-20) [Triple agonist of SEQ ID NO: 52] | 0.3
H[Aib]QGTFTSDKSKYLDERACQDFVQWLLDGGPSSGAPPPS [Triple agonist of SEQ ID NO: 40] | < 0.1
H[Aib]QGTFTSDYSKYLDGQHAQCFVAWLLAGGGPSSGAPPPS [Triple agonist of SEQ ID NO: 39] | < 0.1
HGQGTFTSDCSKQLDGQAAQEFVAWLLAGGPSSGAPPPS [Triple agonist of SEQ ID NO: 44] | < 0.1
HGQGTFTSDCSKYLDGQRAQDFVNWLLAGGPSSGAPPPS [Triple agonist of SEQ ID NO: 48] | < 0.1
HGQGTFTSDCSKYLDEQHAQEFVAWLLAGGPSSGAPPPS [Triple agonist of SEQ ID NO: 46] | < 0.1
HGQGTFTSDCSKYLDGQRAQEFVAWLLAGGPSSGAPPPS [Triple agonist of SEQ ID NO: 47] | < 0.1
HGQGTFTSDCSKYMDGQAAQDFVAWLLAGGPSSGAPPPS [Triple agonist of SEQ ID NO: 45] | < 0.1
Y[Aib]QGTFTSDYSKYLDEKRAKEFVQWLLDHHCSSGQPPPS (bridge 16-20) [Triple agonist of SEQ ID NO: 43] | 3.7
H[Aib]QGTFTSDYSKYLDEKRQKEFVNWLLAQKC (bridge 16-20) [Triple agonist of SEQ ID NO: 34] | 0.6
H[Aib]QGTFTSDYSIAMDEIHQKDFVNWLLNTKC (bridge 16-20) [Triple agonist of SEQ ID NO: 35] | 1.3
Y[Aib]QGTFTSDYSKYLDEKRAKEFVQWLLDHHPSSGQPPPSC (bridge 16-20) [Triple agonist of SEQ ID NO: 42] | 7.8
H[Aib]QGTFTSDKSKYLDECAAQDFVQWLLDGGPSSGAPPPS [Triple agonist of SEQ ID NO: 41] | < 0.1
H[Aib]QGTFTSDYSKYLDEKRQKEFVQWLLNTC (bridge 16-20) [Triple agonist of SEQ ID NO: 51] | 0.1
H[Aib]QGTFTSDYSKYLDEKRQKEFVNWLLAQC (also: ring formation, positions not given here) [Triple agonist of SEQ ID NO: 56] | 0.8
{Acetyl(2-(4-imidazolyl))}-[Aib]QGTFTSDYSICMDEIHQKDFVNWLLNTK (bridge 15-19) [Triple agonist of SEQ ID NO: 49] | 3.3
H[Aib]QGTFTSDYSKYLDEKRAKEFVQWLLDHHPSSGQPPPSC (bridge 16-20) [Triple agonist of SEQ ID NO: 50] | 2.7
H[Aib]QGTFTSDYSKYLCEKRQKEFVQWLLNGGPSSGAPPPSG (bridge 16-20) [Triple agonist of SEQ ID NO: 36] | 0.2
H[Aib]QGTFTSDVSSYLLGQQQKEFIAWLVKGC [Triple agonist of SEQ ID NO: 4] | < 0.1
H[Aib]EGTFTSDYSIAMDEIHQKDFVNWLLAQC (bridge 16-20) [Triple agonist of SEQ ID NO: 53] | 1.3
H[Aib]QGTFTSDVSSYLDGQAAKEFVAWLLKGC [Triple agonist of SEQ ID NO: 6] | < 0.1
H[Aib]QGTFTSDYSIAMDEIHQKDFVNWLLNTC (bridge 16-20) [Triple agonist of SEQ ID NO: 57] | 0.3
H[Aib]QGTFTSDYSKYLDECRQKEFVQWLLNGGPSSGAPPPSG (bridge 16-20) [Triple agonist of SEQ ID NO: 37] | 2.2

target: human GCG receptor (human, UniProt P47871 26-477); experiment: cell-based or functional assay
Sequence (P47871 26-477): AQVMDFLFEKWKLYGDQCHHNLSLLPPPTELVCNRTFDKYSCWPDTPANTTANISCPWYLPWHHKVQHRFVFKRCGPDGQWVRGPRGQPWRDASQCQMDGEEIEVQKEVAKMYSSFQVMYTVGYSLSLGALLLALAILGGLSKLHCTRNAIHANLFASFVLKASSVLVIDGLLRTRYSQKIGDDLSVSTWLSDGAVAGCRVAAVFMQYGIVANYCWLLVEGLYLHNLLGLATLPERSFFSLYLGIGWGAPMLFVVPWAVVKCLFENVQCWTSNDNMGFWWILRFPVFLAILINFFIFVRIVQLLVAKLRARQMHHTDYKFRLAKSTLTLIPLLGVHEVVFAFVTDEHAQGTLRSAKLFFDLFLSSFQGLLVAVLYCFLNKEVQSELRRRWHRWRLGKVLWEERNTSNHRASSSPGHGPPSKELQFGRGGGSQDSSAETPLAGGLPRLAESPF

Binder | In vitro activity compared with native peptide (%) vs. Glucagon [%]
H[Aib]QGTFTSDYSIAMDEIHQKDFVNWLLAQC (bridge 16-20) [Triple agonist of SEQ ID NO: 55] | 0.7
H[Aib]QGTFTSDVSSYLLGQQQKEFIAWLVKGGGPSSGAPPPSC [Triple agonist of SEQ ID NO: 5] | < 0.1
H[Aib]EGTFTSDYSIAMDEIHQKDFVDWLLAEC (bridge 16-20) [Triple agonist of SEQ ID NO: 54] | 1.4
H[Aib]QGTFTSDYSKYLDEKRQKEFVQWLLDTC (bridge 16-20) [Triple agonist of SEQ ID NO: 52] | 7.5
H[Aib]QGTFTSDKSKYLDERACQDFVQWLLDGGPSSGAPPPS [Triple agonist of SEQ ID NO: 40] | < 0.1
H[Aib]QGTFTSDYSKYLDGQHAQCFVAWLLAGGGPSSGAPPPS [Triple agonist of SEQ ID NO: 39] | 0.53
HGQGTFTSDCSKQLDGQAAQEFVAWLLAGGPSSGAPPPS [Triple agonist of SEQ ID NO: 44] | < 0.1
HGQGTFTSDCSKYLDGQRAQDFVNWLLAGGPSSGAPPPS [Triple agonist of SEQ ID NO: 48] | < 0.1
HGQGTFTSDCSKYLDEQHAQEFVAWLLAGGPSSGAPPPS [Triple agonist of SEQ ID NO: 46] | < 0.1
HGQGTFTSDCSKYLDGQRAQEFVAWLLAGGPSSGAPPPS [Triple agonist of SEQ ID NO: 47] | < 0.1
HGQGTFTSDCSKYMDGQAAQDFVAWLLAGGPSSGAPPPS [Triple agonist of SEQ ID NO: 45] | < 0.1
Y[Aib]QGTFTSDYSKYLDEKRAKEFVQWLLDHHCSSGQPPPS (bridge 16-20) [Triple agonist of SEQ ID NO: 43] | 88.4
H[Aib]QGTFTSDYSKYLDEKRQKEFVNWLLAQKC (bridge 16-20) [Triple agonist of SEQ ID NO: 34] | 0.92
H[Aib]QGTFTSDYSIAMDEIHQKDFVNWLLNTKC (bridge 16-20) [Triple agonist of SEQ ID NO: 35] | < 0.1
Y[Aib]QGTFTSDYSKYLDEKRAKEFVQWLLDHHPSSGQPPPSC (bridge 16-20) [Triple agonist of SEQ ID NO: 42] | 206
H[Aib]QGTFTSDKSKYLDECAAQDFVQWLLDGGPSSGAPPPS [Triple agonist of SEQ ID NO: 41] | < 0.1
H[Aib]QGTFTSDYSKYLDEKRQKEFVQWLLNTC (bridge 16-20) [Triple agonist of SEQ ID NO: 51] | 2
H[Aib]QGTFTSDYSKYLDEKRQKEFVNWLLAQC (also: ring formation, positions not given here) [Triple agonist of SEQ ID NO: 56] | 4.9
{Acetyl(2-(4-imidazolyl))}-[Aib]QGTFTSDYSICMDEIHQKDFVNWLLNTK (bridge 15-19) [Triple agonist of SEQ ID NO: 49] | < 0.1
H[Aib]QGTFTSDYSKYLDEKRAKEFVQWLLDHHPSSGQPPPSC (bridge 16-20) [Triple agonist of SEQ ID NO: 50] | 50.5
H[Aib]QGTFTSDYSKYLCEKRQKEFVQWLLNGGPSSGAPPPSG (bridge 16-20) [Triple agonist of SEQ ID NO: 36] | 0.39
H[Aib]QGTFTSDVSSYLLGQQQKEFIAWLVKGC [Triple agonist of SEQ ID NO: 4] | < 0.1
H[Aib]EGTFTSDYSIAMDEIHQKDFVNWLLAQC (bridge 16-20) [Triple agonist of SEQ ID NO: 53] | 8.4
H[Aib]QGTFTSDVSSYLDGQAAKEFVAWLLKGC [Triple agonist of SEQ ID NO: 6] | < 0.1
H[Aib]QGTFTSDYSIAMDEIHQKDFVNWLLNTC (bridge 16-20) [Triple agonist of SEQ ID NO: 57] | < 0.1
H[Aib]QGTFTSDYSKYLDECRQKEFVQWLLNGGPSSGAPPPSG (bridge 16-20) [Triple agonist of SEQ ID NO: 37] | 6.21

target: human GLP-1 receptor (human, UniProt P43220 24-463); experiment: cell-based or functional assay

Binder | In vitro activity compared with native peptide (%) vs. GLP-1 [%]
H[Aib]QGTFTSDYSIAMDEIHQKDFVNWLLAQC (bridge 16-20) [Triple agonist of SEQ ID NO: 55] | 27.1
H[Aib]QGTFTSDVSSYLLGQQQKEFIAWLVKGGGPSSGAPPPSC [Triple agonist of SEQ ID NO: 5] | 42.1
H[Aib]EGTFTSDYSIAMDEIHQKDFVDWLLAEC (bridge 16-20) [Triple agonist of SEQ ID NO: 54] | 30.6
H[Aib]QGTFTSDYSKYLDEKRQKEFVQWLLDTC (bridge 16-20) [Triple agonist of SEQ ID NO: 52] | 44.1
H[Aib]QGTFTSDKSKYLDERACQDFVQWLLDGGPSSGAPPPS [Triple agonist of SEQ ID NO: 40] | 75.2
H[Aib]QGTFTSDYSKYLDGQHAQCFVAWLLAGGGPSSGAPPPS [Triple agonist of SEQ ID NO: 39] | 13.9
HGQGTFTSDCSKQLDGQAAQEFVAWLLAGGPSSGAPPPS [Triple agonist of SEQ ID NO: 44] | 1.3
HGQGTFTSDCSKYLDGQRAQDFVNWLLAGGPSSGAPPPS [Triple agonist of SEQ ID NO: 48] | 1.5
HGQGTFTSDCSKYLDEQHAQEFVAWLLAGGPSSGAPPPS [Triple agonist of SEQ ID NO: 46] | 1.4
HGQGTFTSDCSKYLDGQRAQEFVAWLLAGGPSSGAPPPS [Triple agonist of SEQ ID NO: 47] | 2.4
HGQGTFTSDCSKYMDGQAAQDFVAWLLAGGPSSGAPPPS [Triple agonist of SEQ ID NO: 45] | 6.6
Y[Aib]QGTFTSDYSKYLDEKRAKEFVQWLLDHHCSSGQPPPS (bridge 16-20) [Triple agonist of SEQ ID NO: 43] | 12.6
H[Aib]QGTFTSDYSKYLDEKRQKEFVNWLLAQKC (bridge 16-20) [Triple agonist of SEQ ID NO: 34] | 19.1
H[Aib]QGTFTSDYSIAMDEIHQKDFVNWLLNTKC (bridge 16-20) [Triple agonist of SEQ ID NO: 35] | 7.5
Y[Aib]QGTFTSDYSKYLDEKRAKEFVQWLLDHHPSSGQPPPSC (bridge 16-20) [Triple agonist of SEQ ID NO: 42] | 33.9
H[Aib]QGTFTSDKSKYLDECAAQDFVQWLLDGGPSSGAPPPS [Triple agonist of SEQ ID NO: 41] | 34.3
H[Aib]QGTFTSDYSKYLDEKRQKEFVQWLLNTC (bridge 16-20) [Triple agonist of SEQ ID NO: 51] | 14.4
H[Aib]QGTFTSDYSKYLDEKRQKEFVNWLLAQC (also: ring formation, positions not given here) [Triple agonist of SEQ ID NO: 56] | 57.9
[Acetyl(2-(4-imidazolyl))][Aib]QGTFTSDKSSYLDERAAQDFVQWLLDGGPSSGAPPPSS [Triple agonist of SEQ ID NO: 38] | 2.3
{Acetyl(2-(4-imidazolyl))}-[Aib]QGTFTSDYSICMDEIHQKDFVNWLLNTK (bridge 15-19) [Triple agonist of SEQ ID NO: 49] | 29.8
H[Aib]QGTFTSDYSKYLDEKRAKEFVQWLLDHHPSSGQPPPSC (bridge 16-20) [Triple agonist of SEQ ID NO: 50] | 67.4
H[Aib]QGTFTSDYSKYLCEKRQKEFVQWLLNGGPSSGAPPPSG (bridge 16-20) [Triple agonist of SEQ ID NO: 36] | 37.4
H[Aib]QGTFTSDVSSYLLGQQQKEFIAWLVKGC [Triple agonist of SEQ ID NO: 4] | 8.5
H[Aib]EGTFTSDYSIAMDEIHQKDFVNWLLAQC (bridge 16-20) [Triple agonist of SEQ ID NO: 53] | 161
H[Aib]QGTFTSDVSSYLDGQAAKEFVAWLLKGC [Triple agonist of SEQ ID NO: 6] | 17
H[Aib]QGTFTSDYSIAMDEIHQKDFVNWLLNTC (bridge 16-20) [Triple agonist of SEQ ID NO: 57] | 11.7
H[Aib]QGTFTSDYSKYLDECRQKEFVQWLLNGGPSSGAPPPSG (bridge 16-20) [Triple agonist of SEQ ID NO: 37] | 236
